The source of these data is paper PMC10163345 (2023).

Where no end group is shown, it is not given here.

The experiment concerns the target constitutively active truncated His-tagged WT calcineurin (6×His–CNAαWT:CNB) (Homo sapiens (Human),Homo sapiens …, UniProt Q08209,P63098). The experiment is described as follows: His-tag pulldown + immunoblot. In general terms: A western blot detects proteins with antibodies after separation by electrophoresis.

Chain of constitutively active truncated His-tagged WT calcineurin (6×His–CNAαWT:CNB) (Q08209 1-392, one chain of several): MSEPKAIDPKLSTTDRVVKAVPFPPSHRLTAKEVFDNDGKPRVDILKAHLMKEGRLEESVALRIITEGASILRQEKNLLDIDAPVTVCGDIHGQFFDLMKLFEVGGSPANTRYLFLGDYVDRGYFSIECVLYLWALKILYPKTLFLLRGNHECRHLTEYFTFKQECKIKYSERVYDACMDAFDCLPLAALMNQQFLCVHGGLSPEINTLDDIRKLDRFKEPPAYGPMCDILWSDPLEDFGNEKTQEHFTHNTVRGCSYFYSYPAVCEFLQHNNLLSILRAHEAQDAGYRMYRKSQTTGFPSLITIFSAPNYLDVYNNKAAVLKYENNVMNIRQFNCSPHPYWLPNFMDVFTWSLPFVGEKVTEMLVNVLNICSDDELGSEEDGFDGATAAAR

B1: GST-tagged POC5 PxIxIT peptide (POC5 PDVRIS) (protein)
chain: KGELVPDVRISTIHDI
modifications: also: GST-tagged fusion
For the molecule B1, the binding result is “binds”.
